For 9 molecules, Kd, koff and kon results are on record in patent US20230312721A1 (published 2023).

The chains are these.
T1: 4Ig human B7-H3 (human, UniProt Q5ZPR3 29-466, limits assumed)
T1 construct: Soluble analyte in SPR; also called 4Ig-B7H3; 4Ig B7H3
T1 sequence: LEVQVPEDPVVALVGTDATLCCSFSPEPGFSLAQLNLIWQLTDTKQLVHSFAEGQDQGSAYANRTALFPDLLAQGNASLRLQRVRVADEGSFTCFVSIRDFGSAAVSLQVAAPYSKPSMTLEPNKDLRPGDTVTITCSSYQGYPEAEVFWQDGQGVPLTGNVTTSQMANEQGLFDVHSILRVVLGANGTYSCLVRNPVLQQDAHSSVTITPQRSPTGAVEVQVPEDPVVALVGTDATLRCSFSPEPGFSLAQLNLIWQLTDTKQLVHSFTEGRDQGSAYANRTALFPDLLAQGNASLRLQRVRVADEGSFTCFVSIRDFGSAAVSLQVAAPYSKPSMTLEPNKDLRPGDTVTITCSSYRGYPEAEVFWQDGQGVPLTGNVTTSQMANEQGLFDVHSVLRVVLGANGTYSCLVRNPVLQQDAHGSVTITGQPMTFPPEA

B1: L3H4 (antibody, human IgG1, kappa, V domains shown)
VH: QVQLVQSGAEVKKPGASVKVSCKASGYTFTNYDINWVRQATGQGLEWIGWIFPGDGSTQYNEKFQGRVTMTTNTSISTAYMELSSLRSEDTAVYFCARQTTATWFAYWGQGTLVTVSS
VL: EIVMTQSPDFQSVTPKEKVTLTCRASQSISDYLHWYQQKPDQSPKLLIKYASQSISGVPSRFSGSGSGSDFTLTINSLEAEDAGVYYCQNGHSFPLTFGQGTKLEIKR
notes: Humanized IgG1, HEK293; chains tied by the L/H names; also called YB8 L3 + YB8 H4
B2: L4H3 (antibody, human IgG1, kappa, V domains shown)
VH: B1 VH with I48M, Q65K, M70L, T72R
VL: B1 VL with V58I, S69T, L78V
notes: Humanized IgG1, HEK293; chains tied by the L/H names; also called YB8 L4 + YB8 H3
B3: L4H2 (antibody, human IgG1, kappa, V domains shown)
VH: B1 VH with V5Q, Q65K, V68A, M70L, T72R, F95Y
VL: B1 VL with V58I, S69T, L78V
notes: Humanized IgG1, HEK293; chains tied by the L/H names; also called YB8 L4 + YB8 H2
B4: L3H6 (antibody, human IgG1, kappa, V domains shown)
VH: B1 VH with V5Q, V20L, N61A, E62Q, V68A, M70L
VL: B1 VL
notes: Humanized IgG1, HEK293; chains tied by the L/H names; also called YB8 L3 + YB8 H6
B5: L4H4 (antibody, human IgG1, kappa, V domains shown)
VH: B1 VH
VL: B1 VL with V58I, S69T, L78V
notes: Humanized IgG1, HEK293; chains tied by the L/H names; also called YB8 L4 + YB8 H4
B6: L4H6 (antibody, human IgG1, kappa, V domains shown)
VH: B1 VH with V5Q, V20L, N61A, E62Q, V68A, M70L
VL: B1 VL with V58I, S69T, L78V
notes: Humanized IgG1, HEK293; chains tied by the L/H names; also called YB8 L4 + YB8 H6
B7: L3H5 (antibody, human IgG1, kappa, V domains shown)
VH: B1 VH with I48M, F95Y
VL: B1 VL
notes: Humanized IgG1, HEK293; chains tied by the L/H names; also called YB8 L3 + YB8 H5
B8: L4H5 (antibody, human IgG1, kappa, V domains shown)
VH: B1 VH with I48M, F95Y
VL: B1 VL with V58I, S69T, L78V
notes: Humanized IgG1, HEK293; chains tied by the L/H names; also called YB8 L4 + YB8 H5
B9: L4H1 (antibody, human IgG1, kappa, V domains shown)
VH: B1 VH with M70L, F95Y
VL: B1 VL with V58I, S69T, L78V
notes: Humanized IgG1, HEK293; chains tied by the L/H names; also called YB8 L4 + YB8 H1

Where a chain is given by its changes, count along the chain named.

For this experiment, the target named is T1, 4Ig human B7-H3. Briefly: SPR, Carterra LSA; antibody captured on anti-human Fc lawn, 4Ig human B7-H3 as analyte. As to the method: Chimeric and humanized antibodies were generated using CDR grafting methods using closely homologous human germline sequences. Six different humanized VH and four humanized VL sequences were combined to generate 24 different humanized IgG1 antibodies. The antibodies were expressed in HEK293 cells and purified using Protein A resin. Antibodies were buffer exchanged into PBS and quantified by OD280 and titer was calculated. Sample purity and aggregation status was determined by analytical Size Exclusion Chromatography (SEC-HPLC), which separates molecules based on molecular mass and hydrodynamic volume. Area % of each peak is calculated based on total area of the peaks. Peak symmetry is calculated to determine the peak fronting (<1) or tailing (>1). A column of 300A pore size was used for detection at 280 nm and PBS as the running buffer. Surface plasmon resonance studies to assess binding affinities were carried out on a Carterra LSA instrument. An anti-human Fc antibody “lawn” was prepared on a HC30M chip by amine coupling. The chip was activated with equal volume of 100 mM MES pH 5.5, 100 mM S-NHS and 400 mM EDC. The anti-human IgG Fc antibody was immobilized. The chip was deactivated with 1 M ethanolamine pH 8.5. Antibodies were diluted and printed onto the anti-human Fc lawn. An 8-point series of 4Ig human B7-H3 was prepared.
The characterization data, including expression titers (mg of purified protein per L of culture), purity (% monomer peak by analytical SEC-HPLC) and affinity measurement by SPR (ka, kd and KD) are summarized in Table 1 and FIG. 1-4.
Background: SPR reads the build-up and loss of mass on a sensor chip optically.
B1 yielded a Kd of 8.4 nM, a koff of 0.00033 s⁻¹ and a kon of 40000 M⁻¹ s⁻¹.
Molecule B2 displayed a Kd of 13 nM, a koff of 0.00039 s⁻¹ and a kon of 31000 M⁻¹ s⁻¹.
As to B3, the Kd worked out at 11 nM, the dissociation rate constant (koff) turned out to be 0.00039 s⁻¹ and the kon stood at 36000 M⁻¹ s⁻¹.
Consider B4, for which the Kd is 20 nM, the koff worked out at 0.0005 s⁻¹ and the kon amounted to 25000 M⁻¹ s⁻¹.
In turn, B5 returned a Kd of 11 nM, a koff of 0.00036 s⁻¹ and a kon of 34000 M⁻¹ s⁻¹.
Take B6: the affinity, expressed as Kd, was 9.6 nM; the koff worked out at 0.00042 s⁻¹; the kon came out at 43000 M⁻¹ s⁻¹.
B7 gave a Kd of 9.2 nM, a koff of 0.00035 s⁻¹ and a kon of 38000 M⁻¹ s⁻¹.
Molecule B8 registered a Kd of 9.3 nM, a koff of 0.0004 s⁻¹ and a kon of 43000 M⁻¹ s⁻¹.
On the same counts, the results for B9 are 23 nM, 0.00055 s⁻¹ and 24000 M⁻¹ s⁻¹.

By Kd is commonly meant the constant that tells how readily two partners part at equilibrium. A low value points to higher affinity. As a reminder, the koff is a measure of how fast the partners let go of each other. The low end stands for a long-lived complex, the high end for a short-lived complex. What is called kon is a measure of how fast the partners come together.
